Results on one molecule are retold here after US20230312689A1.

The target of this experiment is two kinds of spike viruses (Wuhan type S, European type SD614G). The experiment in a line: cell-based or functional assay.

B1: CTMA9-105 (antibody, V domains shown)
VH: EVQLVESGGGLIQPGGSLRLSCAASGITVSSNYMSWVRQAPGKGLEWVSLIYSGGSTYYADSVKGRFTISRDNSKNTLYLQMNSLRAEDTAVYYCARDLEEAGGMDVWGQGTTVTVSS
VL: DIVMTQSPGTLSLSPGERATLSCRASQSVPSIYLAWYQQRPGQAPRLLIYGASSRATGIPDRFSGSGSGTDFTLTISRLEPEDFAVYYCQQYGSSPGTFGQGTKVEIK
B1: the IC50, pseudovirus neutralization test using the purified antibody fell in the range of 2 to 6 ng/mL.
